Experimental data as given in article PMC6123721 (2018).

B1: 6D8 single-chain Fv (scFv) (scFv, V domains shown)
VH: QVQLQQSGDELVKPGASVKLSCTVSGFNIKDDFIHWMKQRPEQGLEWIGRIDPANGYTKYAPKFQDKATMTADTSSNTAYLQLSSLASEDAAVYYCATYGVAYWGQGTLVTVSA
VL: DIVLTQSPASLAVSLGQRATISCKASQSVDHDGDSYMNWFQQKPGQSPKLLIYAASNLESGIPARFSGSGSGTDFTLNIHPVEEEDAATYYCQQTNEDPYTFGGGTKLEIK

Tests used:
Assay in all cases: ITC
[1] = biological target: B1
FC27-MSP2 = biological target: FC27-MSP2
3D7-MSP2 = biological target: 3D7-MSP2

| Binder | Kd [1] [nM] | Kd (FC27-MSP2) [nM] | Kd (3D7-MSP2) [nM] |
| --- | --- | --- | --- |
| NAYNMSIRRSMANEGSNTNSV [FC27 MSP2 14-34 peptide (C-terminally extended epitope, FC27 allele)] | 16 | – | – |
| NAYNMSIRRSMAESKPSTGAG [3D7 MSP2 14-34 peptide (C-terminally extended epitope, 3D7 allele)] | 64 | – | – |
| B1 | – | 13 | 61 |
| NAYNMSIRR [MSP2 14-22 peptide (minimal 6D8 epitope of merozoite surface protein 2)] | 6 | – | – |
